The target in test [1] is T1, CXCR1 (UniProt P25024 1-350, limits assumed).
T1 construct: also called IL-8R
T1 sequence (looked up): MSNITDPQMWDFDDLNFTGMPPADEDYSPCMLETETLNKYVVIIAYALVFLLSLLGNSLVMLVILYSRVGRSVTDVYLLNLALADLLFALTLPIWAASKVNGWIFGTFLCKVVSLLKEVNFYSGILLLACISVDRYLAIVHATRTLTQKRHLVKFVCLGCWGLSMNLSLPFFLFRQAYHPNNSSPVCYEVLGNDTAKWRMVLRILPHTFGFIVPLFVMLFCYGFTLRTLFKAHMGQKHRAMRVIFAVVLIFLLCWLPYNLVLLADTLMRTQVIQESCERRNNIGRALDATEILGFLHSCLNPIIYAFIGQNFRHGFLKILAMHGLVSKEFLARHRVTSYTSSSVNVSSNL
Description: indirect ELISA, ONCO P8-CXCR1 complex formation. The source says:
The Kd Equation include: (1) i=A_{450 nm}/A^max_{450 nm}, then i=Ligand/Ligand^max; (2) 1/(1−i)=(Ligₜₒₜ/i)/Kd−b, b=fqSrec/Kd.
(In an ELISA, binding on a coated surface is turned into a signal by an enzyme label.)

Test [2] addresses T2, CXCR2 (UniProt P25025 1-360, limits assumed).
T2 construct: also called IL-8R
T2 sequence (looked up): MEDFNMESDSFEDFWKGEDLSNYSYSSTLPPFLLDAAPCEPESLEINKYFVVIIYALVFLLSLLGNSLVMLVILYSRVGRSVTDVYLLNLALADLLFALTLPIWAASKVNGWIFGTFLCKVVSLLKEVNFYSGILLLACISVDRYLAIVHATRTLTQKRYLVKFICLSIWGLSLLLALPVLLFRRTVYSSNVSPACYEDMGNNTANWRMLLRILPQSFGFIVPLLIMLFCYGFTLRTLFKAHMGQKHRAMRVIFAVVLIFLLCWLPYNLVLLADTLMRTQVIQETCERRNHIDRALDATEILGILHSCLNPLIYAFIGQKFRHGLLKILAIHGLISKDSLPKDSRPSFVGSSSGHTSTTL
Description: indirect ELISA, ONCO P8-CXCR2 complex formation.

B1: ONCO P-8 (peptide)
chain: GSKELRCQCIRSYSKPFHPKFIKELRVIPASQFCANTEIIVKLSDGRELCLDPKENWVQRVVEKFLKRAENS
notes: Designed analogue of CXCL8 (IL-8), described as an antagonist of CXCR1 and CXCR2; also called chemokine receptor antagonistic modified peptide
Turning to B1, the Kd amounted to 286 nM in test [1] and 139 nM in test [2].

A word on the Kd: it is the concentration at which binding is half-saturated. Low values mean tighter binding, high ones weaker binding.

The values above are taken from patent US20210128683A1 (RISE BIOPHARMACEUTICALS, published 2021).
